Results from the NTF2 design screens of Basanta et al. (2020).

experiment: protease stability score; higher = more stable; yeast display proteolysis, trypsin and chymotrypsin;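 also: log10 excess protease needed over predicted unfolded state with 0 meaning unfolded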

Point of comparison: “DEDVVDEFRRAIESNDFDRLVELADENAKADIGNKTVRGRDEMKDLMTSQKRRVDHLQVTSFSIDGDKLTVRYIANIDGHKIDNVVRFVAHNGKLKHMEVRARSEEQQKTLEKLIG”, protease stability score 0.059. Against it:
- DEDSEATEVAKTMHKNMKEGDPDKFMDQFDKDVRVQVGDKVYHGRDNALKWVREMLKRVDHVNFQVKRVRRQGDSVVLHLEVTLNQNGKHDKTTFVIHFTKQGDKFRADHLREQ — higher, 1.86
- DEDSEFEAARRFFKAVQTGDEDEAMRQMDEDASARVGDKTYHGREHARKAMHNFRQEVDHIDVTTFDKSNGRLDVNAILEHNGKTKSVKINIQASNGHVKSVNIQDK — lower, -0.103
- DEDSHKKLLEEMKDILNHGNFKNMLELADKNVRMQVGDKQYTGHSEFEDFLEHQRRQIDHLQVTDFKVSGENLVLTATANVNGKHVTIRFVVFFENGKMVRMEVDPSFQKQLES — higher, 0.87
- DEDSQAHEIAQHFIELLKHNNEDDMKKYIDPNAKAQYGDKRVHGRNHVIRTFKEMRDKVDHISVEIKSIKANGEKISADMVVTFNVNGKNETVQYVLIFQVQGERVRVTHVKID — higher, 0.796
- DEDSQTKLAELFITALEEGDPELANKNVDENARADVGDKTLHGREDVSRMVHDLRRRADHIQVETLEVRNGRVDAIIVIDVNGKKVRFRMEIEIHNGRIKHLRMKSE — higher, 0.653
- DEDTALTIAEQVMKAIQRGDEEEAEKLGKPDVEVQAFNERNKGQEMLKKAVEYVKKVGDQFEYKETRKEGNQVVTVVQVTRGGRTMEYKVDVKVEGGKVKLWRVEIPEEFAKVVEKS — lower, 0.013
- DEDTARKQVQIYKDNDPNQLVRMFDENARLKVGDQTVDGREELERWVKRLRTRVDRYSYKNVDIQGERVVIDMVMVVDGKQVEFVVEFVVEDGRIKNAKVQARNKDEETKLQEAIG — higher, 1.25
- DEDTESNFRQFIRAWKSGNPNELRRLAPPDAHLKVGDKEWHGMEKAVTYLEREVKESTFDIKRWDVKVDGNSVTAHVKMVVHDNGQPNNYKVEMNANFHNGQIESYNVETRK — higher, 0.267
- DEDTIKKLVKRMIDALVKNNTEEARRLLKPDVRFEAVDTEVRGPDQVATYYKKVKDLGVEIRVKEYKVEGNHAKVKYDMRHGGDQITVEAELEAKDSKVDRFRHEDDEKYQKTVKHG — higher, 0.154
- DEDTIRKVNRSFLEAVQHNDDDTLRRLLDEDAHAQYGDKTVHGKTEVVKMILTFVEQVDSLDYKSITATGDHVDVKVDAKHNGRTLDVRIIMRIENGRFTHVQFDIR — higher, 0.075
- DEDTIRRQAKEFFKNFRDNDEDSLRTLMDENVEARYGDKTYHGRESVLTALATVLSQIDHLEVENLHVHNGRIEVVMKFVVNGREVRMNVIFHIRNGRIKKINIDPDEQRKLES — higher, 1.49
- DEDTLKHMAREFVKALQTGDEDRLSEMVDENVRIDYGDKTVSGRKKAQEYAHRVRKQVDHIEVREVEVHGNKVEIDAVLVFNGQRLTVTFRIIMRNGKVQHIQLEVTDPDKQRKAEQ — higher, 1.26
- DEDTLKKLFEQVFKYVQKGNTKELKKVIDESVEFQFGDHRYKGVDQYIKLIKEFKDRGVQFRVEEAQQKDDDVTMRTKIRYGNKEVTVKAQARYDGGHAKHFRVELSEEAKKALKTG — higher, 0.292
- DEDTLKKMAQKIADAIRKGDEDQMERLADEDARMSYGDTTWHGRQEVKKAVREFRNQFDHLTIKRITVKGEKVKIDAEFTVNGREVSFVVIAHVNNGRLKEVVVHFTDPDTLHEALK — higher, 0.622
- DEDTLRKVAETLMKALKTNDSESLKQMMDKDVKMTVGDKKYQGREEAADHLIELAQSVDHLEVRSVDNQGNHASVEFEVQHNGRNDTVHLRFEISNGRVKNVVLHTP — higher, 1.99
- DEDTLRTQEEQFKRNNPDDLKKQFDPNAKIRYGDKEITGREDLKKFIDKLRKRIDHYRVRSINIKGEHVRADVVVVVDGRHVRYKVIRHLDNGKVKSLEVKFTSEEQEKKFKEALD — higher, 0.261
- DEDTNREQVKRFEEAQQENDPDKWMDNLDENARLDVGDTRVHGSKEIMKHFKRLNDKIDHWRVQSFEFHNGRMKLNAVARVNGKRLKMQFQANVHNGKFTELRMDPDAVRKITS — higher, 0.413
- DEDVEDRVRRFLEQVNHNNPQDLSKYMDPNARLDIGDKVLHGREDIHKFWEDLIRESRIEVREMDVKVHNGRVSATVRFVEHENGNPRETVMKITATWSNGRAQFMRFQSDG — higher, 0.82
- DEDVERIIKRFLTALTHNDPEQAAQNVDPNAQVRIGDKSVHGKDQLKNRIEEEVKEMRVDIKHMSVDVKGNKASIHLHFVIQTNGKPDEKTAVMEVVVQGDKIHELELHDTK — higher, 0.725
- DEDVKELAEKYWKVVKEGNPHEVKKMVDPNVKFNVGEQHIHGREEVARQVSKENREIRINYQLRDVKVHNGRVDVTADLEEEHNGKPETNKVKAHFVFRNGRVQTLSQTNKK — lower, -0.031
- DEDVKKLFEDWLRALQTNNPDEVNEMADPNVTVKVGNKVVHGREQLNKDLKEETKHIRVTYHHVDLTVHNGRAKARLDVTVNVNGRPVRFQFNVTVHARNGRVVSMHVQIPHEVLETIKQ — higher, 1.57
- DEDVKRMIEDFIEAEKKNNPRQLKKNADPEAEADVGDTKVHGMDHFAREVKKRMDQMRVSVDYKSITVDGNTIKAKARVSENHNGRPKHNTATLEFRAHNGRIKEIRHHEDK — lower, -0.332
- DEDVKRVMEELVKVMHNNDPNEFMKLLDPNARWTIGDKTYHGRDNLRREVKKHHDQQRVQYKSWHIDVHGERATATAEVRVDHNGQPDTFRLVISAQAHNGRVKRAEYRKDT — lower, -0.145
- DEDVQDQYRKILEAEKKNNPDHLNELMDPNVKFNVGDHTIHGREQRKEKQDELVKESRYDIKVDRVSVKGNKFVAKFKVTEEHNGRPHTTVLVIVMTVENGHVKRLQVKRDK — lower, -0.001
- DEDVQKIAETFWRVLKQGNEDDARRLIDPNARINVGNKNYHGREQIAEIIKKKKEEIRFSIDDVKVRVHNGELTASIDFKVNVNGRPDSIHVEFRMVVHNGKIVQIQMQVDEDWMKELES — higher, 0.788
- DEDVVKEWMTDQRNNNEKRLQSLVDPNAKLEYGDKSIHGDEEMHEWAKKLRESVDHWEVKEYDIHNGTAEADVVVQFNGREIRYQFVAVAHNGSVTSIVYRARDEDFERFLDDIFS — higher, 0.165
- DEEAAKHVNRMLEKGDEKKIAQHVDKDARAHVGNQELHGREDIIRAVTRFRQQADHMRVDSYEVQGDRIEVTFEVVVNGHKMQLKATIRVDNGRIKHNKIQARSEEQTKQMQKLLD — lower, -0.171
- DEEAAKKMMETWMKAVQKGDEKTVQKVYKPNGRWVHIDEERQGVEVVVKMMQQVKKQGVEFQIRRAKVEGDRVQFVYDLRLGDKTATFTVELQAQGGRVQEVKAEVSEEAKEIVTKG — higher, 0.14
- DEEAAKKVKTLVEHGDFQQMARNFDEDARVVIGDRVVHGREQAIEAMRRFDEAVDHQEVKSVTSSGNKVKFNIQAHVDGKTVRMIVVIEMHNGKLKMVRFDATSEDLRRILKRSLG — higher, 1.27
- DEEAAKLMRKMQQAVRSNNPEEVQRMMDPNASAKYGDKEVHGREEIATHLVKETRRMHIHYDVEHITVDNGRADVTADVQQEHNGKPERRKYKVHIEVRGDKLVHLRFETRK — higher, 0.06
- DEEAAKRAEEYLKALRSGNPDDLKKQIDPNASYQIGDKRVHGREQQATLAHNLQHNMRMEWELKDYRVQGNSVTLEIDVVIEHNGRPEKFKADVRVTFHNGKIQEMTVREDK — lower, 0.051
- DEEAAKRLENILKAEERNDEDSLRRLMDKDAHINVGDRQVHGMDRRRENVQHQSRRSDIQLESINKHENGDTVHVDVVRRYQHNGRPSRERFDAVAQVHNGKMRSMTAQDSQ — lower, -0.44
- DEEAARKFEHALRVREHGNEHQLQELVDPNARVSIGDKRVKGHERIQHWQETLHHEMRFRMQVDSYEVQGEKVRFNVRVQYDINGQPVDDRMTLVVQFDNGRIKSVEYQIPTEMKRDLKR — lower, 0.032
- DEEADKRITEQLKQEQEGDKDKVKEQIDPNARIKVGDKTIHGMDEYVRMVHRTRREQRRRIRVVSVEVRGNTAKVDADRHIDVNGRPVRYRIEFHVEFHNGKVTDIHVHTDQEQKKKQHG — higher, 0.655
- DEEAEDLVKELWKAWKHNDPDTWVKQLPPDARISVGNKEVHGREQARHEFERQVERMQVRLKVDSVHNRGNKAHFHVTVDASVNGKPVTFTVEVVITFHNGKAKYIEMRMSEEQFDKFQG — higher, 1.41
- DEEAEHVARELQKAQETGNPKRARHMMDENARIQVGDHRIHGMSRYLEDLRRKQEEIRIEFKRVSHNVNGNRVVINFLAVYEVNGHPVHLRIQLSFEIHNGRAQTMDVNISEQQMRDIER — lower, -0.022
- DEEAEKELRKMFQNENKGNPNEVMKQFDKHARVKVGEKEIRGRHQVHNYVDHVRKEMRRQIDSMSLEVHGNKLIVHITYVADINGHPVRVQVQYIIQFHNGKIKEVKVKIDEDEKRRMDQ — higher, 0.385
- DEEAEKLAREFIKAVQTGDEEELNELMDPNARFRIGNKTFHGMTNAAKEFNDKRREAHIEYHITSIRVSGDHVEVKVEVHVNVNGKPVHNEVTMDFKRHNGRIRDFQVQIDEEDQKKQDK — higher, 1.29
- DEEAEKRFEELMENRKTGNEHDVSEYADPNVTARIGDHEVRGREQLHDLQRKEKEEMRVDIKDYRLDFNGDTVRVEVHLEDEHNGRPRDRHQSNSFRWQNGKLKELHIRSDK — lower, -0.353
- DEEAEKVYRKMLHALRTGNEHQLKKLMDPNVHVKVGDKHIHGREDVAQEQRTDRQRWRNDQQLVTFHAEGDQVEFTVEYVIEVNGQPDKDRYKAFFRFDNGKIKEFQVDIDPKELKEQLN — higher, 0.096
- DEEAERIAEEFIRAQQTGDKDRLRKLMDPNARANVGDKRYHGMERWAKDVARTMHEQRVEIKDLKISVQGNKADVHIDLVVDHNGQPRRFDMRLDFRFNNGTIKEVSYDDKR — higher, 0.391
- DEEAERIIERYLEAVKTNDPEQMKEMADPNVKVKVGDKVIHGMEDAVKKVQHRLDEQRVEIKHVTLKVRNGRVNVEADVVVTHNGRPDRSKYHIDMEAHNGSAVYVRITDVS — higher, 1.38
- DEEAETVLKRWLTALRENDPQQAADLADPHAQFQIGEKTIRGREDLKRFMDEMLHHLRVDFTIDHVKVTGETVVVHFTVEFNVNGRPLRFEVVLVVKAENGKVKQLEQHMDDDQWRQVKS — higher, 0.358
- DEEAFKRFKEMVDAIRTGDRDRVRRLADPNARFEVGDKEVRGMDDYARKIKRKRDEIRMRYQIDSYSKSGDKVVARVQVEVEHNGQPSSHVYRAEFKNSNGRIVELNVKTDS — higher, 0.275
- DEEAFKVMEKLEEDIHTGSEENIEKLFDPNARLRVGDHVVDGRHNIAKHVRDVRESARLEFSVRTYDMQGEKVRLDVTWRREHNGQPESATATVVAEIHNGRIVSVTVDERK — higher, 0.801
- DEEAHELWKKWQEAFKTGDPEQLHEMADKDARLRIGNKEIHGREKAVKQLVDERKEMHIDYRIRSYKFEGNRLTFTAHANARVNGQPYRYTVKMQFSFSNGRLKELQIRIPEEVMQELRN — higher, 0.791
- DEEAHEVIDTLRKAQETGDRNTARSLIDPNATFQVGDNVIRGREEYVRDLVRHRDQIRVELKHLSQTFSNGKMRMTQEAVYDINGRPDRVEFTASATIHNGRVKHMTVQVPPEQVKRLER — lower, -0.181
- DEEAHKLATKWLRAVQTGDPDTVKELVDPNVRAVYGDQEITGRERLADEIKKTRDHSRVELESVRVTVHGDKVRAQADVRVNTNGKPERNTVDVTIVIHNGRIKRMHMQKSQ — higher, 0.7
- DEEAHKLMEEMMRAWKHGDSQRVADLVDPNARVKIGDKEVRGHEQIKELVHTLKTEMRIEYQSISAENHGNHVEVDARLSVESNGKPEQVDFKLRLVVQNGRIREISADYKP — lower, -0.035
